Assay results reported in article PMC5814841.

T1: hpTEN (Hansenula polymorpha (Ogataea …, UniProt R4IT35 1-159))
T1 sequence: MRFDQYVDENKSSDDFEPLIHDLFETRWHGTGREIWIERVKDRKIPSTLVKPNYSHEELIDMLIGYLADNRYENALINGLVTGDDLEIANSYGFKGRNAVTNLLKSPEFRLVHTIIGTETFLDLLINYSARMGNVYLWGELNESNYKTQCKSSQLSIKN

T2: hpTEN N53A/S55A/R110A/E119A (Hansenula polymorpha (Ogataea …, UniProt R4IT35 1-159, N53A;S55A;R110A;E119A))
T2 sequence: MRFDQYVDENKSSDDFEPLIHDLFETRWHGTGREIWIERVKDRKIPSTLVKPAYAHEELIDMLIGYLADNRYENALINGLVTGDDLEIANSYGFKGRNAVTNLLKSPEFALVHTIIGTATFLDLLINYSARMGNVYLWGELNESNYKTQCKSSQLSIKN

T3: hpTEN N53A/S55A/R110A (Hansenula polymorpha (Ogataea …, UniProt R4IT35 1-159, N53A;S55A;R110A))
T3 sequence: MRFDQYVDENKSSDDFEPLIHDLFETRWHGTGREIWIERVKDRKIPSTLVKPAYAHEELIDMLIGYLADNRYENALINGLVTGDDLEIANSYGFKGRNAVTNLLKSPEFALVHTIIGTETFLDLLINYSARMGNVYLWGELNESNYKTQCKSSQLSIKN


Tests used:
hpTEN [1] = biological target: T1, hpTEN; experiment: MST
hpTEN [2] = biological target: T1, hpTEN; experiment: NMR titration
[3] = biological target: T2, hpTEN N53A/S55A/R110A/E119A; experiment: MST
hpTEN N53A/S55A/R110A = biological target: T3, hpTEN N53A/S55A/R110A; experiment: MST

Binder	Kd (hpTEN [1])	Kd (hpTEN [2])	other results
GTGGCGGGGTGGCG (ssDNA) [FAM-ssDNA E2]	1000 ± 200 µM		
CGCCACCCCGCCAC (ssRNA) [E5 ssRNA 2]		5 ± 3 mM	
E9 RNA-DNA half-fork (DNA:RNA) DNA: GGGTGGC RNA: GCCACCCUUCGUCA		4 ± 2 mM	
E3 RNA-DNA heteroduplex 1 (DNA:RNA) DNA: GGGTGGCG ?: CGCCACCC		1.4 ± 0.3 mM	
E4 RNA-DNA heteroduplex 2 (DNA:RNA) DNA: GTGGCGGGGTGGCG ?: CGCCACCCCGCCAC		0.9 ± 0.2 mM	
FAM-E4 heteroduplex (DNA:RNA) DNA: GTGGCGGGGTGGCG ?: CGCCACCCCGCCAC	900 ± 200 µM		
CGCCACCC (ssRNA) [E1 ssRNA 1]		5 ± 2.5 mM	
FAM-E8 fork (DNA:RNA) DNA: CTGTTTCGGGTGGC RNA: GCCACCCUUCGUCA	400 ± 200 µM		Kd [3]: ~300 µM; Kd (hpTEN N53A/S55A/R110A): ~300 µM
